{"source": "patent US20120230990A1", "about": "(MERCK SERONO, published 2012)", "binders": {"B1": {"name": "280.346.TSY (humanized anti-human IL-22RA antibody comprising 280.VH3-66-46 paired with 280.VK4-1-TSY, human IgG1/kappa) (antibody, V domains shown)", "VH": "EVQLVESGGGLVQPGGSLRLSCAASGYSITAEYMNWVRQAPGKGLEWIGEINPSTGTTTYNQKFKGRFTISVDQSKNTAYLQMNSLRAEDTAVYYCARFDAYFDYWGQGTLVTVSS", "VL": "not shown", "notes": "Produced in CHO cells; also called 280.VH3-66-46/VK4-1-TSY; 280.VH3-66.46 paired with 280.IGKV4-1-TSY"}}, "key": {"[1]": {"biological_target": "T1, human IL-22RA on cells (HepG2 hepatoma cells, normal human keratinocytes, BaF3 cells transfected with human … (human, UniProt Q8N6P7 16-574))", "T1 sequence": "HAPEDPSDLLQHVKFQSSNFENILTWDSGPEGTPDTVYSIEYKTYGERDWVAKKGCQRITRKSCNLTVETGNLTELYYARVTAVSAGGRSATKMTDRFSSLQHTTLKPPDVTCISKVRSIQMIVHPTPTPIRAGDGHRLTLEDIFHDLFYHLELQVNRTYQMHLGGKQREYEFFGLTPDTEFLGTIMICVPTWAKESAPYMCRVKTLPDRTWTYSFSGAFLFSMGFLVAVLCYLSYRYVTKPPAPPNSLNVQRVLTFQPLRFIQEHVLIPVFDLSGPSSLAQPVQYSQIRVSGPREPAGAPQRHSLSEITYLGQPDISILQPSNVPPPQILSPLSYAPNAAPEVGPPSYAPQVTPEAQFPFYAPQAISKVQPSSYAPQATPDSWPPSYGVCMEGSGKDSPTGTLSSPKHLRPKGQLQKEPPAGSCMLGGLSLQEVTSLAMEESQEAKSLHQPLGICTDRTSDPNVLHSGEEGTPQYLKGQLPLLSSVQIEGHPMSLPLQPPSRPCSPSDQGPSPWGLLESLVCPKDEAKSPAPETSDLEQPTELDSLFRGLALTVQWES", "test": "cell-based or functional assay"}, "[2]": {"biological_target": "T2, murine IL-22RA on cells (HEPA1-6 hepatoma cells, BaF3 cells transfected with murine IL-22RA and IL-10RB) (murine, UniProt Q80XZ4 16-581)", "T2 sequence (looked up)": "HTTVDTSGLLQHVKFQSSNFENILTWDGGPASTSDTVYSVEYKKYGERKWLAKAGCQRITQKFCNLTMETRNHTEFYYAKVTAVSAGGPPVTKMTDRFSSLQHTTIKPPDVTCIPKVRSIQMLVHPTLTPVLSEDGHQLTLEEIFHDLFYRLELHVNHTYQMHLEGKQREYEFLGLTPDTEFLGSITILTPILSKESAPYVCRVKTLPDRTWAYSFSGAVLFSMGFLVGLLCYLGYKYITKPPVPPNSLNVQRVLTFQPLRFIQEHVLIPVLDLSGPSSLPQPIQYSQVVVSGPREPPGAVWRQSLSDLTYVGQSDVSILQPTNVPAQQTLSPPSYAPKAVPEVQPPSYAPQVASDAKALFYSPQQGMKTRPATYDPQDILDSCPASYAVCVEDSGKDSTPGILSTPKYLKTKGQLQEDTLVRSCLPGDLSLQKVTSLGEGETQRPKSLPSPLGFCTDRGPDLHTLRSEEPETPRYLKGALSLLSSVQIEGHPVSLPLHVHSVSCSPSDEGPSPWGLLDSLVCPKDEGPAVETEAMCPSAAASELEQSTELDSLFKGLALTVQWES", "test": "cell-based or functional assay"}, "[3]": {"biological_target": "T3, human IL-22RA-ECD (IL-22RA-Extra Cellular Domain) (human, UniProt Q8N6P7 16-228)", "T3 construct": "also called human IL-22RA extracellular domain; hIL-22RA coated on the plates; not shown: 6 His tag", "T3 sequence": "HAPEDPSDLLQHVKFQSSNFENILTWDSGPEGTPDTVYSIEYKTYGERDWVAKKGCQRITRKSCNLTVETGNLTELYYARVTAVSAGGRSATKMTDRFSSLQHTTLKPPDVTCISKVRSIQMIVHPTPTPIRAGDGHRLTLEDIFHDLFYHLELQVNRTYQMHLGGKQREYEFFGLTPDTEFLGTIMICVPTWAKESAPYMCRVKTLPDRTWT", "test": "KinExA, IL-22RA-ECD with 6 His tag"}, "mouse IL-22RA-ECD [4]": {"biological_target": "T4, mouse IL-22RA-ECD (mouse, UniProt Q80XZ4 16-230)", "T4 construct": "extracellular domain; Produced in HEK-293 cells and NiNTA-purified; not shown: 6 His tag", "T4 sequence (looked up)": "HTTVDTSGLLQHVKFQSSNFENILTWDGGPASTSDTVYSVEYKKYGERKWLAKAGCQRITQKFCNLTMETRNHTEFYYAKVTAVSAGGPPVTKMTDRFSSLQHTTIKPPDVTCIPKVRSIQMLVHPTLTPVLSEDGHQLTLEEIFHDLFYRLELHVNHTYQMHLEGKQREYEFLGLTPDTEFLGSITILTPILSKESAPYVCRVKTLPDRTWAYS", "test": "KinExA, IL-22RA-ECD with 6 His tag"}, "rat IL-22RA-ECD [5]": {"biological_target": "T5, rat IL-22RA-ECD (rat)", "T5 construct": "extracellular domain; Produced in HEK-293 cells and NiNTA-purified", "test": "KinExA, IL-22RA-ECD with 6 His tag"}, "[6]": {"biological_target": "T6, rhesus monkey IL-22RA-ECD (rhesus monkey)", "T6 construct": "extracellular domain; Produced in HEK-293 cells and NiNTA-purified", "test": "KinExA, IL-22RA-ECD with 6 His tag"}, "[7]": {"biological_target": "T7, cynomolgus monkey IL-22RA-ECD (cynomolgus monkey)", "T7 construct": "extracellular domain; Produced in HEK-293 cells and NiNTA-purified", "test": "KinExA, IL-22RA-ECD with 6 His tag"}, "[8]": {"biological_target": "T8, marmoset monkey IL-22RA-ECD (marmoset monkey)", "T8 construct": "extracellular domain; Produced in HEK-293 cells and NiNTA-purified", "test": "KinExA, IL-22RA-ECD with 6 His tag"}, "[9]": {"biological_target": "T3, human IL-22RA-ECD (IL-22RA-Extra …)", "test": "Biacore, IL-22RA-ECD with 6 His tag"}, "mouse IL-22RA-ECD [10]": {"biological_target": "T4, mouse IL-22RA-ECD", "test": "Biacore, IL-22RA-ECD with 6 His tag"}, "rat IL-22RA-ECD [11]": {"biological_target": "T5, rat IL-22RA-ECD", "test": "Biacore, IL-22RA-ECD with 6 His tag"}, "[12]": {"biological_target": "T8, marmoset monkey IL-22RA-ECD", "test": "Biacore, IL-22RA-ECD with 6 His tag"}, "dog IL-22RA-ECD": {"biological_target": "T9, dog IL-22RA-ECD (dog)", "T9 construct": "extracellular domain; Produced in HEK-293 cells and NiNTA-purified", "test": "Biacore, IL-22RA-ECD with 6 His tag"}}}
{"binder": "B1", "values": [{"measurement": "IC50, STAT3 phosphorylation assay in human HepG2 hepatoma cells stimulated with recombinant human IL-22", "setting": "[1]", "result": 0.0552, "unit": "nM"}, {"measurement": "IC50, STAT3 phosphorylation assay in normal human keratinocytes stimulated with recombinant human IL-22", "setting": "[1]", "result": 0.061, "unit": "nM"}, {"measurement": "IC50, proliferation assay in BaF3 cells transfected with human IL-22RA and IL-10RB, cultured with recombinant human IL-22", "setting": "[1]", "result": 0.317, "unit": "nM"}, {"measurement": "fold potency against the mouse parental antibody 280.46.3.4, STAT3 phosphorylation assay in HepG2 cells", "setting": "[1]", "result": "~5", "unit": "fold"}, {"measurement": "fold potency against the mouse parental antibody 280.46.3.4, STAT3 phosphorylation assay in normal human keratinocytes", "setting": "[1]", "result": "~9", "unit": "fold"}, {"measurement": "fold potency against the mouse parental antibody 280.46.3.4, proliferation of human IL-22 receptor transfected BaF3 cells", "setting": "[1]", "result": 1.7, "unit": "fold"}, {"measurement": "IC50, STAT3 phosphorylation assay in murine HEPA1-6 hepatoma cells stimulated with recombinant murine IL-22", "setting": "[2]", "result": 2.1, "unit": "nM"}, {"measurement": "IC50, proliferation assay in BaF3 cells transfected with murine IL-22RA and IL-10RB, cultured with recombinant murine IL-22", "setting": "[2]", "result": 0.137, "unit": "nM"}, {"measurement": "fold potency against the mouse parental antibody 280.46.3.4, proliferation of mouse IL-22 receptor transfected BaF3 cells", "setting": "[2]", "result": 6.2, "unit": "fold"}, {"measurement": "Kd", "setting": "[3]", "result": "~0.0285", "unit": "nM"}, {"measurement": "Kd", "setting": "mouse IL-22RA-ECD [4]", "result": "~4.85", "unit": "nM"}, {"measurement": "Kd", "setting": "rat IL-22RA-ECD [5]", "result": "~587", "unit": "nM"}, {"measurement": "Kd", "setting": "[6]", "result": "~0.137", "unit": "nM"}, {"measurement": "Kd", "setting": "[7]", "result": "~0.0645", "unit": "nM"}, {"measurement": "Kd", "setting": "[8]", "result": "~0.0385", "unit": "nM"}, {"measurement": "Kd", "setting": "[9]", "result": "~0.15", "unit": "nM"}, {"measurement": "Kd", "setting": "mouse IL-22RA-ECD [10]", "result": "~20", "unit": "nM"}, {"measurement": "Kd", "setting": "rat IL-22RA-ECD [11]", "result": "~1000", "unit": "nM"}, {"measurement": "Kd", "setting": "[12]", "result": 0.4, "unit": "nM"}, {"measurement": "Kd", "setting": "dog IL-22RA-ECD", "result": 100, "unit": "nM"}]}
